Literature values as cited in article PMC3824636.

Assays:
Cys149 [1] = biological target: Cys149 (UniProt position 156, VSNASCTTNCL); assay: chemical modification or UV-vis (listed collectively, not mapped to individual values); details: not stated (apo or holo not specified)
Cys149 [2] = biological target: Cys149 (UniProt position 150, VSNASCTTNCL); assay: as above; details: not stated (apo or holo not specified)
Cys149 [3] = biological target: Cys149 (UniProt position 152, ISNASCTTNCL); assay: as above; details: not stated (apo or holo not specified)
Cys302 = assay: chemical modification (described only as 'titration of Cys-302')

Cytoplasmic glyceraldehyde-3-phosphate dehydrogenase GAPC1 (Arabidopsis thaliana)
pKa (Cys149 [1]): 5.7

Glyceraldehyde-3-phosphate dehydrogenase (GAPDH) (Escherichia coli)
pKa (Cys149 [2]): ~5.7

Glyceraldehyde-3-phosphate dehydrogenase (GAPDH) (Geobacillus stearothermophilus (Bacillus stearothermophilus))
pKa (Cys149 [3]): 5.9

Glyceraldehyde-3-phosphate dehydrogenase (GAPDH), pig liver as stated (Sus scrofa)
pKa (Cys149 [2]): 5.5

Non-phosphorylating NADP-dependent glyceraldehyde-3-phosphate dehydrogenase (GAPN) (Streptococcus mutans)
pKa (Cys302; NADP+-bound (holo-enzyme)): 6.1
pKa (Cys302; apo-enzyme (no cofactor)): 8.5
